From article PMC5405935, “Role of Kif15 and its novel mitotic partner KBP in K-fiber dynamics and chromosome alignment” (PLoS ONE, 2017)

B1: Kif15-M-His (amino acids 1-714, motor domain and part of the stalk) (domain or fragment, human, UniProt Q9NS87 1-714, looked up)
chain: MAPGCKTELRSVTNGQSNQPSNEGDAIKVFVRIRPPAERSGSADGEQNLCLSVLSSTSLRLHSNPEPKTFTFDHVADVDTTQESVFATVAKSIVESCMSGYNGTIFAYGQTGSGKTFTMMGPSESDNFSHNLRGVIPRSFEYLFSLIDREKEKAGAGKSFLCKCSFIEIYNEQIYDLLDSASAGLYLREHIKKGVFVVGAVEQVVTSAAEAYQVLSGGWRNRRVASTSMNRESSRSHAVFTITIESMEKSNEIVNIRTSLLNLVDLAGSERQKDTHAEGMRLKEAGNINRSLSCLGQVITALVDVGNGKQRHVCYRDSKLTFLLRDSLGGNAKTAIIANVHPGSRCFGETLSTLNFAQRAKLIKNKAVVNEDTQGNVSQLQAEVKRLKEQLAELASGQTPPESFLTRDKKKTNYMEYFQEAMLFFKKSEQEKKSLIEKVTQLEDLTLKKEKFIQSNKMIVKFREDQIIRLEKLHKESRGGFLPEEQDRLLSELRNEIQTLREQIEHHPRVAKYAMENHSLREENRRLRLLEPVKRAQEMDAQTIAKLEKAFSEISGMEKSDKNQQGFSPKAQKEPCLFANTEKLKAQLLQIQTELNNSKQEYEEFKELTRKRQLELESELQSLQKANLNLENLLEATKACKRQEVSQLNKIHAETLKIITTPTKAYQLHSRPVPKLSPEMGSFGSLYTQNSSILDNDILNEPVPPEMNEQAFEA
notes: Kif15, human, first 714 amino acids (motor domain and part of the stalk sufficient for dimerization), cloned into pET-21b; also called recombinant Kif15 motor domain; source: E. coli BL21 (DE3), purified (Ni-NTA)

What was measured:
[1] = molecular target: B1; experiment: SEC + other: sucrose gradient centrifugation; 80 μg of each protein alone or both in motor buffer (100mM PIPES, 2mM MgAc2, 1mM EGTA, 1mM DTT), pre-incubated 30 min on ice; Superose 6 column; 6-28% sucrose gradients, 16 h at 4°C; with or without ATP; native molecular weights calculated from Stokes radius and sedimentation coefficient; conditions: both partners purified
[2] = molecular target: the molecule itself; experiment: as above

Binder | stoichiometry N [1] | stoichiometry N [2]
KBP-His (full-length His-tagged KBP) (natural protein, human, UniProt Q96EK5 1-621, looked up, also called recombinant His-tagged KBP; source: E. coli BL21 (DE3), purified (Ni-NTA)) MANVPWAEVCEKFQAALALSRVELHKNPEKEPYKSKYSARALLEEVKALLGPAPEDEDERPEAEDGPGAGDHALGLPAEVVEPEGPVAQRAVRLAVIEFHLGVNHIDTEELSAGEEHLVKCLRLLRRYRLSHDCISLCIQAQNNLGILWSEREEIETAQAYLESSEALYNQYMKEVGSPPLDPTERFLPEEEKLTEQERSKRFEKVYTHNLYYLAQVYQHLEMFEKAAHYCHSTLKRQLEHNAYHPIEWAINAATLSQFYINKLCFMEARHCLSAANVIFGQTGKISATEDTPEAEGEVPELYHQRKGEIARCWIKYCLTLMQNAQLSMQDNIGELDLDKQSELRALRKKELDEEESIRKKAVQFGTGELCDAISAVEEKVSYLRPLDFEEARELFLLGQHYVFEAKEFFQIDGYVTDHIEVVQDHSALFKVLAFFETDMERRCKMHKRRIAMLEPLTVDLNPQYYLLVNRQIQFEIAHAYYDMMDLKVAIADRLRDPDSHIVKKINNLNKSALKYYQLFLDSLRDPNKVFPEHIGEDVLRPAMLAKFRVARLYGKIITADPKKELENLATSLEHYKFIVDYCEKHPEAAQEIEVELELSKEMVSLLPTKMERFRTKMALT | 2 KBP per Kif15-M dimer | –
B1 | – | 2
